Experimental data from patent US20260265385A1 (ANAPTYSBIO, published 2026).

T1: recombinant human IL-2Rβ (extracellular domain, Ala1-Thr215) (human, UniProt P14784 27-240)
T1 construct: extracellular domain; Analyte in SPR; Ala1-Thr215 is counted on the mature protein; also called human LL-2Rβ; Human IL-2RB
T1 sequence (looked up): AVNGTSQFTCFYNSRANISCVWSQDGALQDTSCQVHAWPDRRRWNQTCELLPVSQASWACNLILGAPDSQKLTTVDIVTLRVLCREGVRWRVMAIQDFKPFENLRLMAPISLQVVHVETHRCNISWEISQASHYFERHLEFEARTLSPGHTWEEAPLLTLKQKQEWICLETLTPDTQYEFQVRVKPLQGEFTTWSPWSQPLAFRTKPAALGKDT

T2: recombinant cynomolgus IL-2Rβ (extracellular domain, Ala1-Thr215) (cynomolgus, UniProt Q38J85 27-240)
T2 construct: extracellular domain; Analyte in SPR; also called cynomolgus LL-2Rβ; Cyno IL-2RB
T2 sequence (looked up): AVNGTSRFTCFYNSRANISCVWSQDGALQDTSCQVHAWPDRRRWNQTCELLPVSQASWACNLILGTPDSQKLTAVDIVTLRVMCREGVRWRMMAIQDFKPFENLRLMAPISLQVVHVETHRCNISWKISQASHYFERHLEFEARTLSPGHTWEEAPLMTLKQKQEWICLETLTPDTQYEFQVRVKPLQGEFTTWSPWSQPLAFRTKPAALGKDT


Legend:
[1] = target: T1, recombinant human IL-2Rβ (extracellular …); test: SPR, antibody captured on Protein A chip
Description: (§1) Surface plasmon resonance (SPR) was used to determine the binding affinities. The M6-1625 and M10-1275 antibodies were captured onto a Cytiva Protein A Chip for 60 seconds at 0.5 μg/mL for 60 seconds. The antibodies were exposed to recombinant human LL-2Rβ or cynomolgus LL-2Rβ (corresponding to residues Ala1-Thr215 of the extracellular domains excluding the signal peptide) at typical concentrations ranging from 0.4 nM to 11 nM with typical 300 second associations and 1200 second dissociations using a BiacoreS200 instrument. Sensorgrams were fit globally using a 1:1 binding model in the Biacore T200 Evaluation Software to calculate on- and off-rates and KD values.

[2] = target: T2, recombinant cynomolgus IL-2Rβ …; test: SPR, antibody captured on Protein A chip
Description: as §1

Binder	Kd [1] [nM]	Kd [2] [nM]
APE14970 (antibody, V domains shown, M10-1275 series) VH: EVQLVQSGAEVKKPGATVKISCKVSGFNFKDSLMHWVQQAPGKGLEWMGWIDSENGETEYAPGFQDRVTITADTSTDTAYMELSSLRSEDTAVYYCARGGPWFLSYWGQGTTVTVSS VL: EIVMTQSPATLSVSPGERATLSCRASQIISNNLHWYQQKPGQAPRLLIIYGLQSISGIPARFSGSRSGTEFTLTISSLQSEDFAVYFCQQSNNWPWTFGQGTKLEIKR	0.074	0.014
APE15038 (antibody, V domains shown, M10-1275 series) VH: EVQLVQSGAEVKKPGATVKISCKVSGFNFKDSLIHWVQQAPGKGLEWMGWIDSENGETEYAPGFQDRVTITADTSTDTAYMELSSLRSEDTAVYYCARGGPWFLSYWGQGTTVTVSS VL: EIVMTQSPATLSVSPGERATLSCRASQIISNNLHWYQQKPGQAPRLLIIYGLQSISGIPARFSGSRSGTEFTLTISSLQSEDFAVYFCQQSNNWPWTFGQGTKLEIKR	0.12	0.0185
APE15054 (antibody, V domains shown, M10-1275 series) VH: EVQLVQSGAEVKKPGATVKISCKVSGFNFKDSLMHWVQQAPGKGLEWMGWIDSENGETEYAPGFQDRVTITADTSTDTAYMELSSLRSEDTAVYYCARGGPWFLSYWGQGTTVTVSS VL: EIVMTQSPATLSVSPGERATLSCRASQIISNNLHWYQQKPGQAPRLLIIYGLQSISGIPARFSGSRSGTEFTLTISSLQSEDFAVYFCQQSNNWPFTFGQGTKLEIKR	0.429	0.108
APE15056 (antibody, V domains shown, M10-1275 series) VH: EVQLVQSGAEVKKPGATVKISCKVSGFNFKDSLMHWVQQAPGKGLEWMGWIDSENGETEYAPGFQDRVTITADTSTDTAYMELSSLRSEDTAVYYCARGGPWFLSYWGQGTTVTVSS VL: EIVMTQSPATLSVSPGERATLSCRASQIISNNLHWYQQKPGQAPRLLIIYGLQSISGIPARFSGSRSGTEFTLTISSLQSEDFAVYFCQQSNNFPWTFGQGTKLEIKR	0.122	0.0198
APE14969 (antibody, V domains shown, M10-1275 series) VH: EVQLVQSGAEVKKPGATVKISCKVSGFNFKDSLMHWVQQAPGKGLEWMGWIDSENGETEYAPGFQDRVTITADTSTDTAYMELSSLRSEDTAVYYCARGGPWFLSYWGQGTTVTVSS VL: EIVMTQSPATLSVSPGERATLSCRASQIISNNLHWYQQKPGQAPRLLIIYGLQSISGIPARFSGSGSGTEFTLTISSLQSEDFAVYFCQQSNNWPWTFGQGTKLEIKR	0.187	0.018
APE14971 (antibody, V domains shown, M10-1275 series) VH: EVQLVQSGAEVKKPGATVKISCKVSGFNFKDSLMHWVQQAPGKGLEWMGWIDSENGETEYAPGFQDRVTITADTSTDTAYMELSSLRSEDTAVYYCARGGPWFLSYWGQGTTVTVSS VL: EIVMTQSPATLSVSPGERATLSCRASQIISNNLHWYQQKPGQAPRLLIYYGLQSISGIPARFSGSGSGTEFTLTISSLQSEDFAVYYCQQSNNWPWTFGQGTKLEIKR	0.278	0.026
APE15036 (antibody, V domains shown, M10-1275 series) VH: EVQLVQSGAEVKKPGATVKISCKVSGFNFKDSLVHWVQQAPGKGLEWMGWIDSENGETEYAPGFQDRVTITADTSTDTAYMELSSLRSEDTAVYYCARGGPWFLSYWGQGTTVTVSS VL: EIVMTQSPATLSVSPGERATLSCRASQIISNNLHWYQQKPGQAPRLLIIYGLQSISGIPARFSGSRSGTEFTLTISSLQSEDFAVYFCQQSNNWPWTFGQGTKLEIKR	0.165	0.0195
APE15034 (antibody, V domains shown, M10-1275 series) VH: EVQLVQSGAEVKKPGATVKISCKVSGFNFKDSLMHWVQQAPGKGLEWMGWIDSETGETEYAPGFQDRVTITADTSTDTAYMELSSLRSEDTAVYYCARGGPWFLSYWGQGTTVTVSS VL: EIVMTQSPATLSVSPGERATLSCRASQIISNNLHWYQQKPGQAPRLLIIYGLQSISGIPARFSGSRSGTEFTLTISSLQSEDFAVYFCQQSNNWPWTFGQGTKLEIKR	0.19	0.0222
APE15055 (antibody, V domains shown, M10-1275 series) VH: EVQLVQSGAEVKKPGATVKISCKVSGFNFKDSLMHWVQQAPGKGLEWMGWIDSENGETEYAPGFQDRVTITADTSTDTAYMELSSLRSEDTAVYYCARGGPWFLSYWGQGTTVTVSS VL: EIVMTQSPATLSVSPGERATLSCRASQIISNNLHWYQQKPGQAPRLLIIYGLQSISGIPARFSGSRSGTEFTLTISSLQSEDFAVYFCQQSNNYPWTFGQGTKLEIKR	0.369	0.0838
APE15037 (antibody, V domains shown, M10-1275 series) VH: EVQLVQSGAEVKKPGATVKISCKVSGFNFKDSLLHWVQQAPGKGLEWMGWIDSENGETEYAPGFQDRVTITADTSTDTAYMELSSLRSEDTAVYYCARGGPWFLSYWGQGTTVTVSS VL: EIVMTQSPATLSVSPGERATLSCRASQIISNNLHWYQQKPGQAPRLLIIYGLQSISGIPARFSGSRSGTEFTLTISSLQSEDFAVYFCQQSNNWPWTFGQGTKLEIKR	0.124	0.0171
APE15035 (antibody, V domains shown, M10-1275 series) VH: EVQLVQSGAEVKKPGATVKISCKVSGFNFKDSLMHWVQQAPGKGLEWMGWIDSESGETEYAPGFQDRVTITADTSTDTAYMELSSLRSEDTAVYYCARGGPWFLSYWGQGTTVTVSS VL: EIVMTQSPATLSVSPGERATLSCRASQIISNNLHWYQQKPGQAPRLLIIYGLQSISGIPARFSGSRSGTEFTLTISSLQSEDFAVYFCQQSNNWPWTFGQGTKLEIKR	0.147	0.0194

Now from value to binder:

Kd [1] [nM]	Kd [2] [nM]	Binder
0.0674	0.0634	APE15369 (antibody, V domains shown, M6-p1625 series) VH: QVQLVQSGAEVKKPGASIKVSCKASGYTFTRFWIQWVRQAPGQGLEWMGEILPGSGSINHNEKFQGRVTMTRDTSTSTVYMELSSLRSEDTAVYYCTRHYGSFDYWGQGTTVTVSS VL: DIQMTQSPSSLSASVGDRVTITCKASQNVGTDVAWYQQKPGKAPKSLIYSASYRYSGVPSRFSGSGSGTDFTLTISSLQPEDFATYFCHQYESYPFTFGQGTKLEIKR
0.11	0.0982	APE15370 (antibody, V domains shown, M6-p1625 series) VH: QVQLVQSGAEVKKPGASVKVSCKVSGYTFSRYWIQWVRQAPGQGLEWMGEILPGSGSINHNEKFQGRVTMTRDTSTSTVYMELSSLRSEDTAVYYCTRHYGSFDYWGQGTTVTVSS VL: DIQMTQSPSSLSASVGDRVTITCKASQNVGTDVAWYQQKPGKAPKSLIYSASYRYSGVPSRFSGSGSGTDFTLTISSLQPEDFATYFCHQYESYPFTFGQGTKLEIKR
0.0917	0.0821	APE15371 (antibody, V domains shown, M6-p1625 series) VH: QVQLVQSGAEVKKPGASIKVSCKASGYTFSRYWIQWVRQAPGQGLEWMGEILPGSGSINHNEKFQGRVTMTRDTSTSTVYMELSSLRSEDTAVYYCTRHYGSFDYWGQGTTVTVSS VL: DIQMTQSPSSLSASVGDRVTITCKASQNVGTDVAWYQQKPGKAPKSLIYSASYRYSGVPSRFSGSGSGTDFTLTISSLQPEDFATYFCHQYESYPFTFGQGTKLEIKR
0.0738	0.0124	APE15032 (antibody, V domains shown, M10-1275 series) VH: EVQLVQSGAEVKKPGATVKISCKVSGFNFKDSLMHWVQQAPGKGLEWMGWIDSEAGETEYAPGFQDRVTITADTSTDTAYMELSSLRSEDTAVYYCARGGPWFLSYWGQGTTVTVSS VL: EIVMTQSPATLSVSPGERATLSCRASQIISNNLHWYQQKPGQAPRLLIIYGLQSISGIPARFSGSRSGTEFTLTISSLQSEDFAVYFCQQSNNWPWTFGQGTKLEIKR
0.0915	0.0399	APE15053 (antibody, V domains shown, M10-1275 series) VH: EVQLVQSGAEVKKPGATVKISCKVSGFNFKDSLMHWVQQAPGKGLEWMGWIDSENGETEYAPGFQDRVTITADTSTDTAYMELSSLRSEDTAVYYCARGGPWFLSYWGQGTTVTVSS VL: EIVMTQSPATLSVSPGERATLSCRASQIISNNLHWYQQKPGQAPRLLIIYGLQSISGIPARFSGSRSGTEFTLTISSLQSEDFAVYFCQQSNNWPYTFGQGTKLEIKR
0.108	0.0189	APE15031 (antibody, V domains shown, M10-1275 series) VH: EVQLVQSGAEVKKPGATVKISCKVSGFNFKDSLMHWVQQAPGKGLEWMGWIDSEHGETEYAPGFQDRVTITADTSTDTAYMELSSLRSEDTAVYYCARGGPWFLSYWGQGTTVTVSS VL: EIVMTQSPATLSVSPGERATLSCRASQIISNNLHWYQQKPGQAPRLLIIYGLQSISGIPARFSGSRSGTEFTLTISSLQSEDFAVYFCQQSNNWPWTFGQGTKLEIKR
0.106	0.0128	APE15033 (antibody, V domains shown, M10-1275 series) VH: EVQLVQSGAEVKKPGATVKISCKVSGFNFKDSLMHWVQQAPGKGLEWMGWIDSEQGETEYAPGFQDRVTITADTSTDTAYMELSSLRSEDTAVYYCARGGPWFLSYWGQGTTVTVSS VL: EIVMTQSPATLSVSPGERATLSCRASQIISNNLHWYQQKPGQAPRLLIIYGLQSISGIPARFSGSRSGTEFTLTISSLQSEDFAVYFCQQSNNWPWTFGQGTKLEIKR
